Legend:
[1] = biological target: Nrf2 8mer peptide (Homo sapiens); experiment: SPR; settings: cited from earlier work
[2] = biological target: Nrf2 9mer peptide, FITC-labeled (Homo sapiens) (UniProt Q16236); experiment: FP; settings: cited from earlier work
Keap1 = biological target: T1, Keap1 (Homo sapiens, UniProt Q14145); experiment: FCS displacement of TAMRA-Nrf2 ETGE peptide from purified GST-Keap1-DGR; supported by co-IP; format: binding
T1 construct: GST-Keap1-DGR, residues 315–598 (DGR domain)
T1 sequence (Q14145 315-598): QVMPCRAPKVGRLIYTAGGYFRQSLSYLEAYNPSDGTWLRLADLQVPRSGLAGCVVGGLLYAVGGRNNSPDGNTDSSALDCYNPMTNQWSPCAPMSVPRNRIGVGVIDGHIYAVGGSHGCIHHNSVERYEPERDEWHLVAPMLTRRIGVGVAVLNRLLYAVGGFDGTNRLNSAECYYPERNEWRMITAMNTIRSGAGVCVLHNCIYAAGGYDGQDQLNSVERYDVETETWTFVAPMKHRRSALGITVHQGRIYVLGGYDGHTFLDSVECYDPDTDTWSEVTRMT

Chain of Keap1 (from UniProt Q14145) (Q14145 whole entry): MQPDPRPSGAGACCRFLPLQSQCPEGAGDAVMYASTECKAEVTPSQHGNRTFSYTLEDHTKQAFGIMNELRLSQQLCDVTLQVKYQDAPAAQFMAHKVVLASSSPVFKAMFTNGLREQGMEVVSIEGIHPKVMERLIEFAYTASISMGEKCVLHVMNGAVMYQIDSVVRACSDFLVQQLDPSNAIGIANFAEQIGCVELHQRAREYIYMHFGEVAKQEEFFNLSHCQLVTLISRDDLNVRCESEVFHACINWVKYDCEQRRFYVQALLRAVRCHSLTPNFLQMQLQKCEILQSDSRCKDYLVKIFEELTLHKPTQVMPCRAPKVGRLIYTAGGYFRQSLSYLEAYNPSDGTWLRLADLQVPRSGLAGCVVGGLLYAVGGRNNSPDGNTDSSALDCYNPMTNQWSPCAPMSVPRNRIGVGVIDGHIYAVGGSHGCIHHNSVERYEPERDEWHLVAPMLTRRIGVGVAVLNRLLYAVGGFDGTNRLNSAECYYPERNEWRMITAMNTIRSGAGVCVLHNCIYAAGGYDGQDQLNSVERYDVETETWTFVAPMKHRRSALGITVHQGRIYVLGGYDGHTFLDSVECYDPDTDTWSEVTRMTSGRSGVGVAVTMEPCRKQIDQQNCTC
Chain of Nrf2 9mer peptide, FITC-labeled (Homo sapiens) (Q16236 whole entry): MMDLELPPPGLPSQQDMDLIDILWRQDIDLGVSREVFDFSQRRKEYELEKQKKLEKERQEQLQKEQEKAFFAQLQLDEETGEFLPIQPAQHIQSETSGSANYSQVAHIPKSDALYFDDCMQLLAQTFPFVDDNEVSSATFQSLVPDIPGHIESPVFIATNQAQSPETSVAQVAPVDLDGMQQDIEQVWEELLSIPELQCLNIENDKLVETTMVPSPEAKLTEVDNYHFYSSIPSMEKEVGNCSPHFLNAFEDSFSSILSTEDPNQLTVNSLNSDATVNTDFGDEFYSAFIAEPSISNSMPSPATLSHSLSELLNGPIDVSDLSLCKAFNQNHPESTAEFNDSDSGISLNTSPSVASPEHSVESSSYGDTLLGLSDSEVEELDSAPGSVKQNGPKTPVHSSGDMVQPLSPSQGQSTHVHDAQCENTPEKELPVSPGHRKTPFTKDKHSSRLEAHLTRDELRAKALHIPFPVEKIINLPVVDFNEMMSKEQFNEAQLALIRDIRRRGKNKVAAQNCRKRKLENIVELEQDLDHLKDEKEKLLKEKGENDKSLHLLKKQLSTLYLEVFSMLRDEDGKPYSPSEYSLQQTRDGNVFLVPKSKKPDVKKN

| Compound | Kd [1] | Kd [2] | IC50 (Keap1) |
| --- | --- | --- | --- |
| Keap1 (from UniProt Q14145) | > 1 µM | 0.0651 µM |  |
| chlorophyllin sodium copper salt |  |  | 35.7 µM |
| O=C1C=Cc2cc(Br)ccc2C1=O [bonaphton, 6-bromo-1,2-naphthoquinone] |  |  | 37.9 µM |
